Legend:
[1] = molecular target: T1, PD-1 on PD-1 reporter Jurkat cells (PATHHUNTER Checkpoint Signaling Assay) (UniProt Q15116 25-288); assay: cell-based or functional assay
[2] = molecular target: T1, PD-1 on PD-1 reporter Jurkat cells …; assay: cell-based or functional assay; remark: listed apart in the source
[3] = molecular target: T2, Recombinant mouse PD-1 extracellular domain (with an immunoglobulin Fc region or a His tag) (mouse, UniProt Q02242 25-169); assay: ELISA, plate-coated recombinant PD-1 extracellular domain
T2 construct: extracellular domain; Coated on ELISA plates; not shown: either an immunoglobulin Fc region or a His tag
T2 sequence (looked up): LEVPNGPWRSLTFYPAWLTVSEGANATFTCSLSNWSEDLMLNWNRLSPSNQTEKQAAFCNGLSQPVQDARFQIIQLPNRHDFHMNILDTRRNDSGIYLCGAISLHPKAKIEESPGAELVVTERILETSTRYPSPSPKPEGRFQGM
Description: (§1) An enzyme-linked immunosorbent assay (ELISA) was performed to assess the binding of anti-PD-1 antibodies to human, cynomolgus monkey, or mouse PD-1. Recombinant proteins containing the extracellular domain of PD-1 together with either an immunoglobulin Fc region or a His tag were used to coat wells of standard 96 well ELISA plates by overnight incubation at 4° C. Unbound recombinant protein was removed, Pierce SUPERBLOCK™ T20 was added, and plates were incubated for 10 minutes at room temperature with shaking. Plates were washed with phosphate buffered saline-TWEEN-20 (PBST), and anti-PD-1 antibodies were added in phosphate buffered saline (PBS) with 1% bovine serum albumin (BSA) and incubated for one hour at room temperature with shaking. Plates were then washed in PBST and incubated with horse radish peroxidase (HRP)-conjugated secondary antibodies in F(ab′)2 directed to either human IgG or human IgM. After one hour, plates were washed again with PBST, signal was developed with SUPERSIGNAL™ ELISA Pico substrate, and an ENVISION® luminometer (PerkinElmer) was used to record signal. Data were analyzed with […] PRISM®.

[4] = molecular target: T1, PD-1 on PD-1 reporter Jurkat cells …; assay: cell-based or functional assay; remark: listed apart in the source
[5] = molecular target: T3, Human PD-1 overexpressed on HEK293 cells (human, UniProt Q15116 25-288); assay: flow cytometry on HEK293 cells overexpressing human PD-1, PE anti-human IgG detection
T3 construct: whole, on cells
T3 sequence (Q15116 25-288): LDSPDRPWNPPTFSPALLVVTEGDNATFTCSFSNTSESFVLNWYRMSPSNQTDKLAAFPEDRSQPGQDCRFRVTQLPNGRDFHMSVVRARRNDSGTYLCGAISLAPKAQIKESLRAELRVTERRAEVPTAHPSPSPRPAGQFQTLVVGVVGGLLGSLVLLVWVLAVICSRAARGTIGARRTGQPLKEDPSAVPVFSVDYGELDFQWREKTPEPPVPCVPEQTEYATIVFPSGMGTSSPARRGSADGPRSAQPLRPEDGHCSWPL
Description: (§2) HEK293 cells were modified to overexpress human or mouse PD-1. Cells were expanded in puromycin-containing media to maintain selection, and aliquoted to 96 well V-bottom plates for antibody staining and flow cytometric analysis. Anti-PD-1 antibodies were added to cells in BD stain buffer with fetal bovine serum (BD Biosciences, cat. #554656) and incubated on ice for 20 minutes. Cells were then washed, and R-phycoerythrin (PE)-labeled anti-human IgG or anti-human IgM secondary antibodies were then added and incubated for an additional 20 minutes. Data were collected on a Beckman Coulter CYTOFLEX® cytometer and analyzed in FLOWJO™.

[6] = molecular target: T4, Mouse PD-1 overexpressed on HEK293 cells (mouse, UniProt Q02242 25-288); assay: flow cytometry on HEK293 cells overexpressing mouse PD-1
T4 construct: whole, on cells
T4 sequence (looked up): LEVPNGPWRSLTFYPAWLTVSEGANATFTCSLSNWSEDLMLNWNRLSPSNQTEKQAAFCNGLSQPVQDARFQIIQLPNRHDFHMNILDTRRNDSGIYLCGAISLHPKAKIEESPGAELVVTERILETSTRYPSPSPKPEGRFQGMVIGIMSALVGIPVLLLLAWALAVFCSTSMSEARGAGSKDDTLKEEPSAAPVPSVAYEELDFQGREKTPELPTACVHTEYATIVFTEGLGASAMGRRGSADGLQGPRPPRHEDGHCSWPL
Description: as §2

[7] = molecular target: T5, Recombinant human PD-1 extracellular domain (with an immunoglobulin Fc region or a His tag) (human, UniProt Q15116 25-170); assay: ELISA, plate-coated recombinant PD-1 extracellular domain, HRP anti-human IgG detection
T5 construct: extracellular domain; Coated on ELISA plates; not shown: either an immunoglobulin Fc region or a His tag
T5 sequence (Q15116 25-170): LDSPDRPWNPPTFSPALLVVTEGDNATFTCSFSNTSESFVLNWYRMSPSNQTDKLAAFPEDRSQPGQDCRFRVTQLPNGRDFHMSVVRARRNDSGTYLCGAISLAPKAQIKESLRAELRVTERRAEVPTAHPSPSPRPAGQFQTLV
Description: as §1

[8] = molecular target: T1, PD-1 on PD-1 reporter Jurkat cells …; assay: cell-based or functional assay; remark: listed apart in the source
[9] = molecular target: T5, Recombinant human PD-1 extracellular …; assay: ELISA, plate-coated recombinant PD-1 extracellular domain, HRP anti-human IgM detection
Description: as §1

T1 sequence (Q15116 25-288): as the sequence (Q15116 25-288) above

B1: Anti-PD-1 IgG #1 (antibody, V domains shown)
VH: EVQLQESGPGLVKPSQTLSLTCTVTGYSITSDYAWNWIRQPPGKKLEWMGYINYSGSTSYNPSLKSRVTISRDTSKNQFSLKLSSVTAADTAVYYCARWIGSSAWYFDVWGQGTLVTVS
VL: DVLMTQTPLSLSVTPGQPASISCRSGQNIVHSNGNTYLEWYLQKPGQSPKLLIYKVSNRFFGVPDRISGSGSGTDFTLKISRVEAEDVGVYFCFQGSHVPFTFGQGTKLEIK
notes: IgG format; In the 'IgG/xlink' columns it was crosslinked 1:1 with goat anti-human IgG F(ab')2 fragment; also called Antibody #1 (IgG format)
- PD-1 Signaling EC50 (PATHHUNTER Checkpoint Signaling Assay, reporter Jurkat cells), IgG [1]: 65 nM
- PD-1 Signaling EC50, IgG/xlink (IgG crosslinked 1:1 with goat anti-human IgG F(ab')2 fragment) [2]: 0.65 nM
- binding result [3]: no binding
- PD-1 Signaling EC50 (second incubation at 4 C), IgG [4]: 29 nM
- PD-1 Signaling EC50 (second incubation at 4 C), IgG/xlink (crosslinked IgG) [4]: 4.4 nM
- EC50 [5]: 59 nM
- binding result [6]: no binding
- EC50 [7]: 1.5 nM
- PD-1 Signaling EC50 (method of Example 8), IgG [8]: 85 nM
- PD-1 Signaling EC50 (method of Example 8), IgG/xlink (crosslinked IgG) [8]: 1.8 nM

B2: Anti-PD-1 Hexameric IgM (IgHM) #1 (antibody, V domains shown)
VH: EVQLQESGPGLVKPSQTLSLTCTVTGYSITSDYAWNWIRQPPGKKLEWMGYINYSGSTSYNPSLKSRVTISRDTSKNQFSLKLSSVTAADTAVYYCARWIGSSAWYFDVWGQGTLVTVS
VL: DVLMTQTPLSLSVTPGQPASISCRSGQNIVHSNGNTYLEWYLQKPGQSPKLLIYKVSNRFFGVPDRISGSGSGTDFTLKISRVEAEDVGVYFCFQGSHVPFTFGQGTKLEIK
- PD-1 Signaling EC50 (method of Example 8), IgHM [8]: 0.07 nM

B3: Anti-PD-1 IgG #4 (antibody, V domains shown)
VH: QVQLVQSGSELKKPGASVKVSCKASGYTFTDYSMHWVRQAPGQGLEWMGWINIETGEPTYAQGFTGRFVFSLDTSVSTAYLQISSLKAEDTAVYFCARDYYGTYFYAMDYWGQGTLVTVSS
VL: EIVLTQSPATLSLSPGERATLSCTASSSVSSSYLHWYQQKPGLAPRLLIYSTSNLASGIPDRFSGSGSGTDYTLTISRLEPEDFAVYYCHQYHRSPLTFGQGTKLEIK
- PD-1 Signaling EC50 (second incubation at 4 C), IgG [4]: 0.89 nM
- PD-1 Signaling EC50 (second incubation at 4 C), IgG/xlink (crosslinked IgG) [4]: 1.7 nM

B4: Anti-PD-1 IgM #4 (antibody)
VH: QVQLVQSGSELKKPGASVKVSCKASGYTFTDYSMHWVRQAPGQGLEWMGWINIETGEPTYAQGFTGRFVFSLDTSVSTAYLQISSLKAEDTAVYFCARDYYGTYFYAMDYWGQGTLVTVSS
VL: EIVLTQSPATLSLSPGERATLSCTASSSVSSSYLHWYQQKPGLAPRLLIYSTSNLASGIPDRFSGSGSGTDYTLTISRLEPEDFAVYYCHQYHRSPLTFGQGTKLEIK
chain: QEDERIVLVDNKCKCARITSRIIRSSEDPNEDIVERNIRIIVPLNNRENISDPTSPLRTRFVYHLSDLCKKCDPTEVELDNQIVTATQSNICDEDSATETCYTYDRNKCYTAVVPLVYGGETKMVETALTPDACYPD
- PD-1 Signaling EC50 (second incubation at 4 C), IgM [4]: 1.1 nM

B5: Anti-PD-1 pentameric IgM #5 (antibody)
VH: QVQLVESGGGVVQPGRSLRLDCKASGITFSNSGMHWVRQAPGKGLEWVAVIWYDGSKRYYADSVKGRFTISRDNSKNTLFLQMNSLRAEDTAVYYCATNDDYWGQGTLVTVSS
VL: EIVLTQSPATLSLSPGERATLSCRASQSVSSYLAWYQQKPGQAPRLLIYDASNRATGIPARFSGSGSGTDFTLTISSLEPEDFAVYYCQQSSNWPRTFGQGTKVEIK
chain: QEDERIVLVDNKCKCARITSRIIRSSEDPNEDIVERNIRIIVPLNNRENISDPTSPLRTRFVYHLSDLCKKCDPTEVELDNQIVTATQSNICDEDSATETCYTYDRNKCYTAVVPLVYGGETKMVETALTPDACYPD
- PD-1 Signaling EC50 (method of Example 8), IgM [8]: 0.03 nM

B6: Anti-PD-1 IgG #2 (antibody, V domains shown)
VH: QVQLQESGPGVVKPSGTLSLTCAISGGSIGSGGSIRSTRWWSWVRQSPGKGLEWIGEIYHSGSTNYNPSLKSRVTISLDKSRNHFSLRLNSVTAADTAVYYCARQDYGDSGDWYFDLWGKGTMVTVSS
VL: NFMLTQPHSVSESPGKTVTISCTRSSGSIASNSVQWYQQRPGSSPTTVIYEDNQRPSGVPDRFSGSIDSSSNSASLTVSGLKTEDEADYYCQSSDSSAVVFGSGTKLTVL
notes: IgG format; In the 'IgG/xlink' columns it was crosslinked 1:1 with goat anti-human IgG F(ab')2 fragment; also called Antibody #2 (IgG format); #2 IgG
- PD-1 Signaling EC50, IgG/xlink (IgG crosslinked 1:1 with goat anti-human IgG F(ab')2 fragment) [2]: 4.8 nM
- binding result [3]: no binding
- PD-1 Signaling EC50 (second incubation at 4 C), IgG [4]: 5.9 nM
- PD-1 Signaling EC50 (second incubation at 4 C), IgG/xlink (crosslinked IgG) [4]: 2.1 nM
- EC50 [5]: 2.9 nM
- binding result [6]: no binding
- EC50 [7]: 0.6 nM
- PD-1 Signaling EC50 (method of Example 8), IgG [8]: 22 nM
- PD-1 Signaling EC50 (method of Example 8), IgG/xlink (crosslinked IgG) [8]: 3.8 nM

B7: Anti-PD-1 Hexameric IgM (IgHM) #2 (antibody, V domains shown)
VH: QVQLQESGPGVVKPSGTLSLTCAISGGSIGSGGSIRSTRWWSWVRQSPGKGLEWIGEIYHSGSTNYNPSLKSRVTISLDKSRNHFSLRLNSVTAADTAVYYCARQDYGDSGDWYFDLWGKGTMVTVSS
VL: NFMLTQPHSVSESPGKTVTISCTRSSGSIASNSVQWYQQRPGSSPTTVIYEDNQRPSGVPDRFSGSIDSSSNSASLTVSGLKTEDEADYYCQSSDSSAVVFGSGTKLTVL
- PD-1 Signaling EC50 (method of Example 8), IgHM [8]: 0.4 nM

B8: Anti-PD-1 IgM #2 (antibody)
VH: QVQLQESGPGVVKPSGTLSLTCAISGGSIGSGGSIRSTRWWSWVRQSPGKGLEWIGEIYHSGSTNYNPSLKSRVTISLDKSRNHFSLRLNSVTAADTAVYYCARQDYGDSGDWYFDLWGKGTMVTVSS
VL: NFMLTQPHSVSESPGKTVTISCTRSSGSIASNSVQWYQQRPGSSPTTVIYEDNQRPSGVPDRFSGSIDSSSNSASLTVSGLKTEDEADYYCQSSDSSAVVFGSGTKLTVL
chain: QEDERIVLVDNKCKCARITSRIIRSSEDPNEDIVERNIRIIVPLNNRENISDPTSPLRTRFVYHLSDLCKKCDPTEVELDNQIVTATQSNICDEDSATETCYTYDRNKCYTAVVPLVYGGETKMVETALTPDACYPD
notes: also called Antibody #2 (IgM format); pentameric IgM #2
- PD-1 Signaling EC50 (PATHHUNTER Checkpoint Signaling Assay, reporter Jurkat cells), IgM [1]: 0.72 nM
- binding result [3]: no binding
- EC50 [9]: 0.35 nM
- PD-1 Signaling EC50 (second incubation at 4 C), IgM [4]: 0.1 nM
- binding result [6]: no binding
- PD-1 Signaling EC50 (method of Example 8), IgM [8]: 0.29 nM

B9: Anti-PD-1 IgG #3 (antibody, V domains shown)
VH: QVQLVQSGAEVKKPGASVKVSCKVSGYSLSKYDMSWVRQAPGKGLEWMGIIYTSGYTDYAQKFQGRVTMTEDTSTDTAYMELSSLRSEDTAVYYCATGNPYYTNGFNSWGQGTLVTVSS
VL: DIQMTQSPSSLSASVGDRVTITCQASQSPNNLLAWYQQKPGKAPKLLIYGASDLPSGVPSRFSGSGSGTDFTLTISSLQPEDFATYYCQNNYYVGPVSYAFGGGTKVEIK
- PD-1 Signaling EC50 (second incubation at 4 C), IgG [4]: 0.19 nM
- PD-1 Signaling EC50 (second incubation at 4 C), IgG/xlink (crosslinked IgG) [4]: 0.19 nM
- PD-1 Signaling EC50 (method of Example 8), IgG [8]: 0.26 nM
- PD-1 Signaling EC50 (method of Example 8), IgG/xlink (crosslinked IgG) [8]: 0.79 nM

B10: Anti-PD-1 IgM #3 (antibody)
VH: QVQLVQSGAEVKKPGASVKVSCKVSGYSLSKYDMSWVRQAPGKGLEWMGIIYTSGYTDYAQKFQGRVTMTEDTSTDTAYMELSSLRSEDTAVYYCATGNPYYTNGFNSWGQGTLVTVSS
VL: DIQMTQSPSSLSASVGDRVTITCQASQSPNNLLAWYQQKPGKAPKLLIYGASDLPSGVPSRFSGSGSGTDFTLTISSLQPEDFATYYCQNNYYVGPVSYAFGGGTKVEIK
chain: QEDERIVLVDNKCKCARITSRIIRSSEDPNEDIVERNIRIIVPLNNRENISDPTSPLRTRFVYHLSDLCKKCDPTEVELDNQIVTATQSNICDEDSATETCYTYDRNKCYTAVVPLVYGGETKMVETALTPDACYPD
- PD-1 Signaling EC50 (second incubation at 4 C), IgM [4]: 0.065 nM
- PD-1 Signaling EC50 (method of Example 8), IgM [8]: 0.13 nM

B11: Anti-PD-1 Hexameric IgM (IgHM) #3 (antibody, V domains shown)
VH: QVQLVQSGAEVKKPGASVKVSCKVSGYSLSKYDMSWVRQAPGKGLEWMGIIYTSGYTDYAQKFQGRVTMTEDTSTDTAYMELSSLRSEDTAVYYCATGNPYYTNGFNSWGQGTLVTVSS
VL: DIQMTQSPSSLSASVGDRVTITCQASQSPNNLLAWYQQKPGKAPKLLIYGASDLPSGVPSRFSGSGSGTDFTLTISSLQPEDFATYYCQNNYYVGPVSYAFGGGTKVEIK
- PD-1 Signaling EC50 (method of Example 8), IgHM [8]: 0.2 nM

— patent publication US20230212293A1 (published 2023)
